The source of these data is the supplement of paper PMC6757056.

B1: library; a variant is named by its letters at N, in order (parent)
chain: GCUGUCACCGAGAAACUGUGAAGUAUAUCUUAAACCUGGGCACUUAAAAGAUAUAUGGAGUUAGUAGUGCAACCUGCUCGGUCUGAUGAGUCCNNNNNNGGACGAAACAGC

± gives the standard deviation of the averaged measurements.

Data set [1] covers variants of B1. As to the kind of experiment: FACS-Seq fitted mean relative fluorescence mCherry/BFP without ligand (log10 relative fluorescence); HEK293T; ligand: cyclic di-GMP (c-di-GMP-II aptamer); higher = higher reporter protein expression. To be noted: ligand present: no. In short, it runs like this: (§1)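 With or without ligand for 48 h, enriched HEK293T libraries carrying a lentiviral ribozyme-switch mCherry reporter and EF1α-BFP were sorted into 6 mCherry/BFP bins. Bin genomic DNA was amplified by PCR, barcoded and sequenced on MiSeq. Fluorescence was taken from normal fits to the resulting bin counts. Each fitted mean of log10(mCherry/BFP) was scaled to five spiked-in control ribozymes.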

Data set [2] covers variants of B1. As to the kind of experiment: normalized RNA/DNA level without ligand (relative to sTRSVctl = 100) (log10 (% of sTRSVctl)); HEK293T; ligand: cyclic di-GMP (c-di-GMP-II aptamer); higher = less ribozyme self-cleavage, higher mRNA level. To be noted: reporter: mCherry (pCS4076), ligand present: no. On the procedure:
(§2)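 Hammerhead (sTRSV) ribozyme switch libraries with a ligand aptamer grafted on stem I and a randomized N4-6 loop II, cloned into the 3' UTR of mCherry and transiently transfected into HEK293T cells; RNA-Seq 72 h post transfection with ligand added 1 h before transfection; RNA read count / plasmid DNA read count normalized to the non-cleaving sTRSVctl (x100), log10; sequences with >100 DNA reads. FACS-Seq: lentiviral library sorted into 6 bins after 48 h ligand, log-normal fit mean of mCherry/BFP scaled to controls. Printed sequences are partial switch sequences.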

Variants of B1 are the subject of data set [3]. The data set can be described thus: FACS-Seq fitted mean relative fluorescence mCherry/BFP with ligand (log10 relative fluorescence); HEK293T; ligand: cyclic di-GMP (c-di-GMP-II aptamer); ligand concentration (+) FACS-Seq: 1 mM; higher = higher reporter protein expression. The settings on record: ligand present: yes. In short, it runs like this: as §1

In data set [4] the parent is B1. As to the kind of experiment: normalized RNA/DNA level with ligand (relative to sTRSVctl = 100) (log10 (% of sTRSVctl)); HEK293T; ligand: cyclic di-GMP (c-di-GMP-II aptamer); ligand concentration (+) RNA-Seq: 1 mM; higher = less ribozyme self-cleavage, higher mRNA level. To be noted: reporter: mCherry (pCS4076), ligand present: yes. On the procedure: as §2

Regarding GCUGUCACCGAGAAACUGUGAAGUAUAUCUUAAACCUGGGCACUUAAAAGAUAUAUGGAGUUAGUAGUGCAACCUGCUCGGUCUGAUGAGUCCUCAAUUGGACGAAACAGC, the “FACS-Seq fitted mean (log10)” value in data set [1] was -0.69 ± 0.034; in data set [3] it was -0.175 ± 0.22. Besides, the “normalized RNA/DNA level without ligand (log10)” value in data set [2] worked out at 1.585 ± 0.0066. Moreover, the “normalized RNA/DNA level with ligand (log10)” value in data set [4] is 1.77 ± 0.13.
For GCUGUCACCGAGAAACUGUGAAGUAUAUCUUAAACCUGGGCACUUAAAAGAUAUAUGGAGUUAGUAGUGCAACCUGCUCGGUCUGAUGAGUCCUCAAUGGGACGAAACAGC the same measures were -0.476 ± 0.064, -0.188 ± 0.01, 1.51 ± 0.12 and 1.78 ± 0.027.
The like results for GCUGUCACCGAGAAACUGUGAAGUAUAUCUUAAACCUGGGCACUUAAAAGAUAUAUGGAGUUAGUAGUGCAACCUGCUCGGUCUGAUGAGUCCUCACCAGGACGAAACAGC were, in that order, 0.0707 ± 0.26, 0.366 ± 0.022, 1.694 ± 0.0047 and 1.84 ± 0.14.
For GCUGUCACCGAGAAACUGUGAAGUAUAUCUUAAACCUGGGCACUUAAAAGAUAUAUGGAGUUAGUAGUGCAACCUGCUCGGUCUGAUGAGUCCGCACAAGGACGAAACAGC the same measures were -0.339 ± 0.051, 0.0543 ± 0.037, 1.41 ± 0.051 and 1.62 ± 0.11.
Turning to GCUGUCACCGAGAAACUGUGAAGUAUAUCUUAAACCUGGGCACUUAAAAGAUAUAUGGAGUUAGUAGUGCAACCUGCUCGGUCUGAUGAGUCCGCACAUGGACGAAACAGC, the “FACS-Seq fitted mean (log10)” value in data set [1] was -0.28 ± 0.043; in data set [3], -0.00874 ± 0.0028. Further, the “normalized RNA/DNA level without ligand (log10)” value in data set [2] amounted to 1.47 ± 0.055. In addition, the “normalized RNA/DNA level with ligand (log10)” value in data set [4] worked out at 1.69 ± 0.11.
GCUGUCACCGAGAAACUGUGAAGUAUAUCUUAAACCUGGGCACUUAAAAGAUAUAUGGAGUUAGUAGUGCAACCUGCUCGGUCUGAUGAGUCCGCACACGGACGAAACAGC: the “FACS-Seq fitted mean (log10)” value was -0.421 ± 0.06 in data set [1] and 0.00625 ± 0.1 in data set [3]. In addition, in data set [2], the “normalized RNA/DNA level without ligand (log10)” value worked out at 1.55 ± 0.034. Besides, in data set [4], the “normalized RNA/DNA level with ligand (log10)” value worked out at 1.69 ± 0.13.
On to GCUGUCACCGAGAAACUGUGAAGUAUAUCUUAAACCUGGGCACUUAAAAGAUAUAUGGAGUUAGUAGUGCAACCUGCUCGGUCUGAUGAGUCCACACAGGGACGAAACAGC, for which the “FACS-Seq fitted mean (log10)” value is -0.515 ± 0.016 in data set [1] and -0.191 ± 0.074 in data set [3]. Moreover, in data set [2], the “normalized RNA/DNA level without ligand (log10)” value came to 1.44 ± 0.084. In data set [4], the “normalized RNA/DNA level with ligand (log10)” value was determined as 1.68 ± 0.11.
Regarding GCUGUCACCGAGAAACUGUGAAGUAUAUCUUAAACCUGGGCACUUAAAAGAUAUAUGGAGUUAGUAGUGCAACCUGCUCGGUCUGAUGAGUCCGCACGAGGACGAAACAGC, the “FACS-Seq fitted mean (log10)” value is -0.471 ± 0.043 in data set [1] and -0.123 ± 0.049 in data set [3]. Further, the “normalized RNA/DNA level without ligand (log10)” value in data set [2] stood at 1.43 ± 0.093. The “normalized RNA/DNA level with ligand (log10)” value in data set [4] worked out at 1.65 ± 0.11.
Regarding GCUGUCACCGAGAAACUGUGAAGUAUAUCUUAAACCUGGGCACUUAAAAGAUAUAUGGAGUUAGUAGUGCAACCUGCUCGGUCUGAUGAGUCCACAAUUGGACGAAACAGC, the entries for the “FACS-Seq fitted mean (log10)” value in data set [1] and in data set [3] were -0.5008 ± 0.0033 and -0.2 ± 0.0047, respectively. Further, the “normalized RNA/DNA level without ligand (log10)” value in data set [2] came out at 1.32 ± 0.093. The “normalized RNA/DNA level with ligand (log10)” value in data set [4] amounted to 1.52 ± 0.089.
The like results for GCUGUCACCGAGAAACUGUGAAGUAUAUCUUAAACCUGGGCACUUAAAAGAUAUAUGGAGUUAGUAGUGCAACCUGCUCGGUCUGAUGAGUCCACAAUGGGACGAAACAGC were, in that order, -0.431 ± 0.026, -0.0705 ± 0.082, 1.39 ± 0.15 and 1.66 ± 0.098.
As for GCUGUCACCGAGAAACUGUGAAGUAUAUCUUAAACCUGGGCACUUAAAAGAUAUAUGGAGUUAGUAGUGCAACCUGCUCGGUCUGAUGAGUCCCCACAUGGACGAAACAGC, the “FACS-Seq fitted mean (log10)” value was 0.0115 ± 0.077 in data set [1] and 0.346 ± 0.031 in data set [3]. Moreover, in data set [2], the “normalized RNA/DNA level without ligand (log10)” value is 1.54 ± 0.052. Moreover, the “normalized RNA/DNA level with ligand (log10)” value in data set [4] is 1.76 ± 0.11.
Regarding GCUGUCACCGAGAAACUGUGAAGUAUAUCUUAAACCUGGGCACUUAAAAGAUAUAUGGAGUUAGUAGUGCAACCUGCUCGGUCUGAUGAGUCCGCAAUGGGACGAAACAGC, the “FACS-Seq fitted mean (log10)” value was -0.186 ± 0.0033 in data set [1] and 0.131 ± 0.072 in data set [3]. In addition, the “normalized RNA/DNA level without ligand (log10)” value in data set [2] came to 1.45 ± 0.14. Moreover, the “normalized RNA/DNA level with ligand (log10)” value in data set [4] turned out to be 1.64 ± 0.069.
The like results for GCUGUCACCGAGAAACUGUGAAGUAUAUCUUAAACCUGGGCACUUAAAAGAUAUAUGGAGUUAGUAGUGCAACCUGCUCGGUCUGAUGAGUCCCCACCUGGACGAAACAGC were, in that order, -0.368 ± 0.015, -0.107 ± 0.015, 1.66 ± 0.02 and 1.8 ± 0.096.
